Source: the supplement of paper PMC9112550, “Optimization of the antimicrobial peptide Bac7 by deep mutational scanning” (BMC Biology, 2022)

Test system: Escherichia coli TOP10
Assay: shrunken log2 fold change of peptide-encoding DNA abundance (4.5 h post-induction vs induction); higher = less antimicrobial activity (less host growth inhibition)
Settings: time post-induction: 4.5 h; library: site-saturation at positions 5, 18, 19, 20
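Further: peptides expressed intracellularly from a pBAD plasmid library in pooled LB shake-flask culture, induced with 0.3% L-arabinose, DNA abundance read by NGS, three biological replicates, DESeq2 with apeglm shrinkage.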

Row | Sequence | shrunken log2 fold change
1 | RRIRSRPPRLPRPRPRPDYQPRP | -0.242
2 | RRIRSRPPRLPRPRPRPEAAPRP | 0.873
3 | RRIRSRPPRLPRPRPRPEAEPRP | 0.841
4 | RRIRSRPPRLPRPRPRPEAKPRP | 0.401
5 | RRIRSRPPRLPRPRPRPEDGPRP | 0.0117
6 | RRIRSRPPRLPRPRPRPEFQPRP | 0.161
7 | RRIRSRPPRLPRPRPRPEGCPRP | 0.0128
8 | RRIRSRPPRLPRPRPRPEHTPRP | 0.262
9 | RRIRSRPPRLPRPRPRPEIFPRP | -0.432
10 | RRIRSRPPRLPRPRPRPEIKPRP | 0.104
11 | RRIRSRPPRLPRPRPRPELQPRP | 0.239
12 | RRIRSRPPRLPRPRPRPENAPRP | -0.231
13 | RRIRSRPPRLPRPRPRPENHPRP | -0.138
14 | RRIRSRPPRLPRPRPRPENQPRP | -0.0853
15 | RRIRSRPPRLPRPRPRPENYPRP | -0.127
16 | RRIRSRPPRLPRPRPRPEPIPRP | 0.312
17 | RRIRSRPPRLPRPRPRPEQFPRP | 0.0895
18 | RRIRSRPPRLPRPRPRPEQPPRP | 0.591
19 | RRIRSRPPRLPRPRPRPESNPRP | -0.126
20 | RRIRSRPPRLPRPRPRPETFPRP | 0.0203
21 | RRIRSRPPRLPRPRPRPETKPRP | 0.187
22 | RRIRSRPPRLPRPRPRPETVPRP | 0.211
23 | RRIRSRPPRLPRPRPRPEWCPRP | 0.219
24 | RRIRSRPPRLPRPRPRPEWQPRP | 0.254
25 | RRIRSRPPRLPRPRPRPEYFPRP | -1.04

Row | Sequence | shrunken log2 fold change
26 | RRIRSRPPRLPRPRPRPFDSPRP | -0.0702
27 | RRIRSRPPRLPRPRPRPFFAPRP | 0.205
28 | RRIRSRPPRLPRPRPRPFGLPRP | -0.0988
29 | RRIRSRPPRLPRPRPRPFIVPRP | -0.477
30 | RRIRSRPPRLPRPRPRPFKKPRP | 0.0549
31 | RRIRSRPPRLPRPRPRPFKMPRP | -0.357
32 | RRIRSRPPRLPRPRPRPFKSPRP | 0.0547
33 | RRIRSRPPRLPRPRPRPFLGPRP | -0.186
34 | RRIRSRPPRLPRPRPRPFLLPRP | -0.411
35 | RRIRSRPPRLPRPRPRPFPEPRP | -0.22
36 | RRIRSRPPRLPRPRPRPFPWPRP | -0.0834
37 | RRIRSRPPRLPRPRPRPFRMPRP | -0.646
38 | RRIRSRPPRLPRPRPRPFRPPRP | -0.249
39 | RRIRSRPPRLPRPRPRPFSGPRP | -0.134
40 | RRIRSRPPRLPRPRPRPFSSPRP | -0.113
41 | RRIRSRPPRLPRPRPRPFWQPRP | 0.909
42 | RRIRSRPPRLPRPRPRPFWYPRP | -0.185
43 | RRIRSRPPRLPRPRPRPFYEPRP | -0.165
44 | RRIRSRPPRLPRPRPRPFYHPRP | -0.28
45 | RRIRSRPPRLPRPRPRPFYKPRP | -0.426
46 | RRIRSRPPRLPRPRPRPGACPRP | 0.0577
47 | RRIRSRPPRLPRPRPRPGAQPRP | 0.68
48 | RRIRSRPPRLPRPRPRPGDYPRP | -0.0123
49 | RRIRSRPPRLPRPRPRPGESPRP | 0.249
50 | RRIRSRPPRLPRPRPRPGFGPRP | 0.463

Row | Sequence | shrunken log2 fold change
51 | RRIRSRPPRLPRPRPRPGFQPRP | -0.114
52 | RRIRSRPPRLPRPRPRPGFTPRP | -0.125
53 | RRIRSRPPRLPRPRPRPGGWPRP | 0.705
54 | RRIRSRPPRLPRPRPRPGIFPRP | 0.201
55 | RRIRSRPPRLPRPRPRPGKIPRP | -0.596
56 | RRIRSRPPRLPRPRPRPGKKPRP | -0.0502
57 | RRIRSRPPRLPRPRPRPGKNPRP | -0.166
58 | RRIRSRPPRLPRPRPRPGMLPRP | -0.0372
59 | RRIRSRPPRLPRPRPRPGNHPRP | -0.311
60 | RRIRSRPPRLPRPRPRPGNPPRP | 0.0113
61 | RRIRSRPPRLPRPRPRPGPMPRP | 0.34
62 | RRIRSRPPRLPRPRPRPGPSPRP | 0.456
63 | RRIRSRPPRLPRPRPRPGQFPRP | -0.112
64 | RRIRSRPPRLPRPRPRPGQPPRP | 0.214
65 | RRIRSRPPRLPRPRPRPGQTPRP | -0.0742
66 | RRIRSRPPRLPRPRPRPGQWPRP | -0.0109
67 | RRIRSRPPRLPRPRPRPGRRPRP | 0.263
68 | RRIRSRPPRLPRPRPRPGRSPRP | 0.109
69 | RRIRSRPPRLPRPRPRPGRWPRP | 0.657
70 | RRIRSRPPRLPRPRPRPGSMPRP | -0.201
71 | RRIRSRPPRLPRPRPRPGSPPRP | 0.106
72 | RRIRSRPPRLPRPRPRPGSQPRP | -0.492
73 | RRIRSRPPRLPRPRPRPGTVPRP | -0.0347
74 | RRIRSRPPRLPRPRPRPGWHPRP | 0.234
75 | RRIRSRPPRLPRPRPRPGWTPRP | -0.0313
